Target: T1, BRD7-His (bromodomain-containing protein 7 with His tag) (human, UniProt Q9NPI1 1-651)
T1 construct: Bromodomain-containing protein 7, human; source: HEK293T, transfected, in lysate; for the pull-down purified from HEK293T cell lysates
T1 sequence (looked up): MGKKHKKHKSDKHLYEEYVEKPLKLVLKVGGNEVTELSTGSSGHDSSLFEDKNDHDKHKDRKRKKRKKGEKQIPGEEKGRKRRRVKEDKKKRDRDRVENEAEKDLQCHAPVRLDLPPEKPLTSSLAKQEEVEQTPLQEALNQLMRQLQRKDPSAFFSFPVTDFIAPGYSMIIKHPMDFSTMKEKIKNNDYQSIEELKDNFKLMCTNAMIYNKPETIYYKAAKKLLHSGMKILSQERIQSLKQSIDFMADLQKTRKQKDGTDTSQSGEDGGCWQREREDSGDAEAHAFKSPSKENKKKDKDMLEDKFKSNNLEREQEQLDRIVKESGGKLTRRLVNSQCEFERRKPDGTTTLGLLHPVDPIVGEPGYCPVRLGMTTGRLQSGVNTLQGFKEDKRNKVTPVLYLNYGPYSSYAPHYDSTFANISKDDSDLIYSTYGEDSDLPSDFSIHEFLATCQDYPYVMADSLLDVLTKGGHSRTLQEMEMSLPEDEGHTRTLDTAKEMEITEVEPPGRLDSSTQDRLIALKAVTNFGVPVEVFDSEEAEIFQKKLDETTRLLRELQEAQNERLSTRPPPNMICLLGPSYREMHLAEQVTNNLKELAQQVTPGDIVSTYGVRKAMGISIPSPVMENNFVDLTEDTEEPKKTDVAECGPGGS
Experiment: co-IP; HEK293T cells co-transfected with FLAG-PPARα and BRD7-His or BRD9-His; lysate (0.3 M NaCl, 0.5% NP-40, pH 8.0) on anti-His tag antibody-Dynabeads Protein G, 2 h at room temperature; Western blot; in Fig. 5C the cells were treated with 30 μM WY-14643 and/or 40 μM BI-9564 for 48 h (interaction markedly attenuated)
Settings: partners not purified

B1: FLAG-PPARα (peroxisome proliferator-activated receptor α with 3×FLAG) (natural protein, human, UniProt Q07869 1-468, looked up)
chain: MVDTESPLCPLSPLEAGDLESPLSEEFLQEMGNIQEISQSIGEDSSGSFGFTEYQYLGSCPGSDGSVITDTLSPASSPSSVTYPVVPGSVDESPSGALNIECRICGDKASGYHYGVHACEGCKGFFRRTIRLKLVYDKCDRSCKIQKKNRNKCQYCRFHKCLSVGMSHNAIRFGRMPRSEKAKLKAEILTCEHDIEDSETADLKSLAKRIYEAYLKNFNMNKVKARVILSGKASNNPPFVIHDMETLCMAEKTLVAKLVANGIQNKEAEVRIFHCCQCTSVETVTELTEFAKAIPGFANLDLNDQVTLLKYGVYEAIFAMLSSVMNKDGMLVAYGNGFITREFLKSLRKPFCDIMEPKFDFAMKFNALELDDSDISLFVAAIICCGDRPGLLNVGHIEKMQEGIVHVLRLHLQSNHPDDIFLFPKLLQKMADLRQLVTEHAQLVQIIKKTESDAALHPLLQEIYRDMY
modifications: acetylated lysine residue(s), positions not given
notes: the sites are not mapped; source: HEK293T, transfected (pcDNA3.1), in lysate; for the pull-down captured from lysate on anti-FLAG antibody-Dynabeads Protein G and washed; not shown: 3×FLAG, N-terminal, kept
binding result: binds

Reference: publication PMC12444171, “Chromatin remodeler BRD9 represses transcription of PPARα target genes, including CPT1A to suppress lipid metabolism” (Journal of Lipid Research, 2025)
